Key:
[1] = target: mesothelin on the cell membrane of the pancreatic cancer cell line AsPC-1 (mesothelin-overexpressing cell line) (human) (UniProt Q13421); assay: flow cytometry, phage on AsPC-1 cells, anti-M13-FITC
[2] = target: mesothelin on the cell membrane of the pancreatic cancer cell line AsPC-1 (mesothelin-overexpressing cell line) (human) (UniProt Q13421); assay: flow cytometry, phage on AsPC-1 cells against K562 control cells, anti-M13-FITC

B1: MSLN3 phage clone (scFv displayed on phage, KBIO human synthetic scFv phage display library KscFv-I) (scFv, V domains shown, not shown: small tags and cut ends; large carriers)
VH: EVQLVESGGGLVQPGGSLRLSCAASGFTFSDYAMSWVRQAPGKGLEWVSAISSSGGTTYYADSVKGRFTISRDNSKNTLYLQMNSLRAEDTAVYYCAKEEEGEWREYFDVWGQGTLVTVSS
VL: DIQMTQSPSSLSASVGDRVTITCRASQSISSYLNWYQQKPGKAPKLLIYATSTLQSGVPSRFSGSGSGTDFTLTISSLQPEDFATYYCQQSYTFPYTFGQGTKVEIK
- relative peak shift value [1]: > 3%
- relative peak shift value [2]: 23.8%

Reference: patent publication US20240033291A1
